Experimental findings from PMC2114734 are described below.

This test concerns the target High affinity thrombin receptor of NIL hamster fibroblasts (Syrian hamster (endogenous in NIL cells)). Kind of test: radioligand binding.

“Human alpha-thrombin (from UniProt P00734 364-622; P00734 364-622) (enzyme)” had a specific 125I-thrombin binding (cpm/ug protein) of 439.
